These results are taken from US20060045881A1, “Anti-cancer vaccines” (Board of Regents, The University of Texas System, priority 2004, published 2006).

The experiment has as its target HLA-A2.1 heavy chain with I125-labeled beta2-microglobulin (heterotrimer complex assay) (human). The experiment can be described thus: dissociation of I125-labeled beta2-microglobulin from heavy chain/peptide/beta2m complex, HPLC gel filtration.

Consider “HTLV-1 Tax peptide (aa 11-19) (from UniProt P03409 11-19) (peptide; other documents disagree on this pair)”, for which the T1/2 (binding half-life) was found to be 5.56 days.
